Assay results taken from the supplement of paper PMC11316812.
± gives the standard deviation of the averaged measurements.

Experiments:
MCF7 = test: percentage of EdU-negative (G0-arrested) nuclei per well, 72 h; higher = more G0 arrest; conditions: reference: sequence is the full UniProt precursor, the tested protein was the secreted form or ectodomain
hTERT-HMEC = test: as above; conditions: reference: sequence is the full UniProt precursor, the tested protein was the secreted form or ectodomain
[1] = protein concentration 0.0225 µM
[2] = protein concentration 0.03125 µM
[3] = protein concentration 0.3125 µM
[4] = protein concentration 0.0147125 µM
[5] = protein concentration 0.147125 µM
[6] = protein concentration 0.0125 µM
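Further: secreted proteins added to cultured cells, EdU pulse at the end, nuclei found by Hoechst imaging, EdU status from nuclear versus surrounding ring intensity ratio, PBS as neutral control.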

Sequence: MDSYLLMWGLLTFIMVPGCQAELCDDDPPEIPHATFKAMAYKEGTMLNCECKRGFRRIKSGSLYMLCTGNSSHSSWDNQCQCTSSATRNTTKQVTPQPEEQKERKTTEMQSPMQPVDQASLPGHCREPPPWENEATERIYHFVVGQMVYYQCVQGYRALHRGPAESVCKMTHGKTRWTQPQLICTGEMETSQFPGEEKPQASPEGRPESETSCLVTTTDFQIQTEMAATMETSIFTTEYQVAVAGCVFLLISVLLLSGLTWQRRQRKSRRTI
- percentage of EdU-negative (MCF7; [1]): 24.6 ± 0.99%
- percentage of EdU-negative (MCF7; protein concentration 0.225 µM): 25.4 ± 1.9%
- percentage of EdU-negative (hTERT-HMEC; [1]): 4.53 ± 0.75%
- percentage of EdU-negative (hTERT-HMEC; protein concentration 0.225 µM): 7.02 ± 0.61%

Sequence: MDTIFLWSLLLLFFGSQASRCSAQKNTEFAVDLYQEVSLSHKDNIIFSPLGITLVLEMVQLGAKGKAQQQIRQTLKQQETSAGEEFFVLKSFFSAISEKKQEFTFNLANALYLQEGFTVKEQYLHGNKEFFQSAIKLVDFQDAKACAEMISTWVERKTDGKIKDMFSGEEFGPLTRLVLVNAIYFKGDWKQKFRKEDTQLINFTKKNGSTVKIPMMKALLRTKYGYFSESSLNYQVLELSYKGDEFSLIIILPAEGMDIEEVEKLITAQQILKWLSEMQEEEVEISLPRFKVEQKVDFKDVLYSLNITEIFSGGCDLSGITDSSEVYVSQVTQKVFFEINEDGSEAATSTGIHIPVIMSLAQSQFIANHPFLFIMKHNPTESILFMGRVTNPDTQEIKGRDLDSL
- percentage of EdU-negative (MCF7; [2]): 24 ± 0.53%
- percentage of EdU-negative (MCF7; [3]): 24.9 ± 1.8%
- percentage of EdU-negative (hTERT-HMEC; [2]): 4.81 ± 0.69%
- percentage of EdU-negative (hTERT-HMEC; [3]): 6.48 ± 0.78%

Sequence: MDTPRVLLSAVFLISFLWDLPGFQQASISSSSSSAELGSTKGMRSRKEGKMQRAPRDSDAGREGQEPQPRPQDEPRAQQPRAQEPPGRGPRVVPHEYMLSIYRTYSIAEKLGINASFFQSSKSANTITSFVDRGLDDLSHTPLRRQKYLFDVSMLSDKEELVGAELRLFRQAPSAPWGPPAGPLHVQLFPCLSPLLLDARTLDPQGAPPAGWEVFDVWQGLRHQPWKQLCLELRAAWGELDAGEAEARARGPQQPPPPDLRSLGFGRRVRPPQERALLVVFTRSQRKNLFAEMREQLGSAEAAGPGAGAEGSWPPPSGAPDARPWLPSPGRRRRRTAFASRHGKRHGKKSRLRCSKKPLHVNFKELGWDDWIIAPLEYEAYHCEGVCDFPLRSHLEPTNHAIIQTLMNSMDPGSTPPSCCVPTKLTPISILYIDAGNNVVYKQYEDMVVESCGCR [Q6KF10]
- percentage of EdU-negative (MCF7; [4]): 25.3 ± 1.3%
- percentage of EdU-negative (MCF7; [5]): 28.7 ± 2.5%
- percentage of EdU-negative (hTERT-HMEC; [4]): 4.28 ± 0.073%
- percentage of EdU-negative (hTERT-HMEC; [5]): 5.35 ± 0.57%

Sequence: MDTRNKAQLLVLLTLLSVLFSQTSAWPLYRAPSALRLGDRIPFEGANEPDQVSLKEDIDMLQNALAENDTPYYDVSRNARHADGVFTSDFSKLLGQLSAKKYLESLMGKRVSSNISEDPVPVKRHSDAVFTDNYTRLRKQMAVKKYLNSILNGKRSSEGESPDFPEELEK
- percentage of EdU-negative (MCF7; [6]): 27.7 ± 3.4%
- percentage of EdU-negative (MCF7; protein concentration 0.125 µM): 22.42 ± 0.17%
- percentage of EdU-negative (hTERT-HMEC; [6]): 5.76 ± 0.37%
- percentage of EdU-negative (hTERT-HMEC; protein concentration 0.125 µM): 5.43 ± 0.065%

Sequence: MDWSFFRVVAMLFIFLVVVEVNSEFRIQVRDYNTKNGTIKWHSIRRQKREWIKFAAACREGEDNSKRNPIAKIHSDCAANQQVTYRISGVGIDQPPYGIFVINQKTGEINITSIVDREVTPFFIIYCRALNSMGQDLERPLELRVRVLDINDNPPVFSMATFAGQIEENSNANTLVMILNATDADEPNNLNSKIAFKIIRQEPSDSPMFIINRNTGEIRTMNNFLDREQYGQYALAVRGSDRDGGADGMSAECECNIKILDVNDNIPYMEQSSYTIEIQENTLNSNLLEIRVIDLDEEFSANWMAVIFFISGNEGNWFEIEMNERTNVGILKVVKPLDYEAMQSLQLSIGVRNKAEFHHSIMSQYKLKASAISVTVLNVIEGPVFRPGSKTYVVTGNMGSNDKVGDFVATDLDTGRPSTTVRYVMGNNPADLLAVDSRTGKLTLKNKVTKEQYNMLGGKYQGTILSIDDNLQRTCTGTININIQSFGNDDRTNTEPNTKITTNTGRQESTSSTNYDTSTTSTDSSQVYSSEPGNGAKDLLSDNVHFGPAGIGLLIMGFLVLGLVPFLMICCDCGGAPRSAAGFEPVPECSDGAIHSWAVEGPQPEPRDITTVIPQIPPDNANIIECIDNSGVYTNEYGGREMQDLGGGERMTGFELTEGVKTSGMPEICQEYSGTLRRNSMRECREGGLNMNFMESYFCQKAYAYADEDEGRPSNDCLLIYDIEGVGSPAGSVGCCSFIGEDLDDSFLDTLGPKFKKLADISLGKESYPDLDPSWPPQSTEPVCLPQETEPVVSGHPPISPHFGTTTVISESTYPSGPGVLHPKPILDPLGYGNVTVTESYTTSDTLKPSVHVHDNRPASNVVVTERVVGPISGADLHGMLEMPDLRDGSNVIVTERVIAPSSSLPTSLTIHHPRESSNVVVTERVIQPTSGMIGSLSMHPELANAHNVIVTERVVSGAGVTGISGTTGISGGIGSSGLVGTSMGAGSGALSGAGISGGGIGLSSLGGTASIGHMRSSSDHHFNQTIGSASPSTARSRITKYSTVQYSK
- percentage of EdU-negative (MCF7; protein concentration 0.014 µM): 25.17 ± 0.14%
- percentage of EdU-negative (MCF7; protein concentration 0.14 µM): 28.1 ± 0.79%
- percentage of EdU-negative (hTERT-HMEC; protein concentration 0.014 µM): 5.37 ± 1.1%
- percentage of EdU-negative (hTERT-HMEC; protein concentration 0.14 µM): 5.1 ± 0.58%

Sequence: MDYPTLLLALLHVYRALCEEVLWHTSVPFAENMSLECVYPSMGILTQVEWFKIGTQQDSIAIFSPTHGMVIRKPYAERVYFLNSTMASNNMTLFFRNASEDDVGYYSCSLYTYPQGTWQKVIQVVQSDSFEAAVPSNSHIVSEPGKNVTLTCQPQMTWPVQAVRWEKIQPRQIDLLTYCNLVHGRNFTSKFPRQIVSNCSHGRWSVIVIPDVTVSDSGLYRCYLQASAGENETFVMRLTVAEGKTDNQYTLFVAGGTVLLLLFVISITTIIVIFLNRRRRRERRDLFTESWDTQKAPNNYRSPISTSQPTNQSMDDTREDIYVNYPTFSRRPKTRV
- percentage of EdU-negative (MCF7; [1]): 25.5 ± 2.7%
- percentage of EdU-negative (MCF7; protein concentration 0.225 µM): 23.8 ± 1.8%
- percentage of EdU-negative (hTERT-HMEC; [1]): 4.86 ± 0.72%
- percentage of EdU-negative (hTERT-HMEC; protein concentration 0.225 µM): 5.13 ± 0.67%
